pKd: −log10 of the molar value.
What was measured:
Test in all cases: ELISA
Human FcR1 (human) = Human FcR1 (human) (UniProt P12314)
Human FcRIIA[H] (human) = Human FcRIIA[H] (human) (UniProt P12318)
Human FcRIIA[R] = target: Human FcRIIA[R]
Human FcRIIB = target: Human FcRIIB
Human FcRIII (human) = target: Human FcRIII (human)
Human FcRn = target: Human FcRn
Mouse FcRIIB = target: Mouse FcRIIB
Mouse FcRIV = target: Mouse FcRIV
Mouse FcRI = target: Mouse FcRI

Sequence of Human FcRIII (human) (P08637 17-208): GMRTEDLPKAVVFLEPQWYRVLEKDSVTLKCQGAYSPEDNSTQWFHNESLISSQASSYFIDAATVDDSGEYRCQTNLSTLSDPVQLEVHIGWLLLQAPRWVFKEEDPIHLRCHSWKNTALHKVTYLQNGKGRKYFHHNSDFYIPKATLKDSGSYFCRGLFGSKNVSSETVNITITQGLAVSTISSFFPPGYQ
Sequence of Mouse FcRIV (A0A0B4J1G0 21-203): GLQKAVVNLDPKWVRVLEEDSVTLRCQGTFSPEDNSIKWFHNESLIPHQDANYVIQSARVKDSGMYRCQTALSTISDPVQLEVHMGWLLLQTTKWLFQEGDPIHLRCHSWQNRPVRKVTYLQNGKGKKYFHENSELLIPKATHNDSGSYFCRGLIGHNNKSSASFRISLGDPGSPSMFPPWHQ
Sequence of Human FcRIIA[H] (human) (P12318 34-217): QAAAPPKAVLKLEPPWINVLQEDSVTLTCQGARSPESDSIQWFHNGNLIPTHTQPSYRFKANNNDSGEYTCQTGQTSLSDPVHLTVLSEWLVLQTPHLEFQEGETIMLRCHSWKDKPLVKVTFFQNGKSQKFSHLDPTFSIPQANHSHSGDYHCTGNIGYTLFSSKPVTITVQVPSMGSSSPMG
Sequence of Human FcR1 (human) (P12314 16-292): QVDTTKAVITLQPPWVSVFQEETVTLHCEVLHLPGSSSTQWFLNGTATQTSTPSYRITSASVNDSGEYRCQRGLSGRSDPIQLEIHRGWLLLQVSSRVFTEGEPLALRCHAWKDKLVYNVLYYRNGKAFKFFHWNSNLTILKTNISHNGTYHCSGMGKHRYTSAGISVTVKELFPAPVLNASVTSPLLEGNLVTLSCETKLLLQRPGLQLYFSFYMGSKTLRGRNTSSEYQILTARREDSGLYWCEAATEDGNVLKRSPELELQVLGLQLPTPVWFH

pKd (Human FcR1 (human)): 9.79
pKd (Human FcRIIA[H] (human)): 6.48
pKd (Human FcRIIA[R]): 6.70
pKd (Human FcRIIB): 6.06
pKd (Human FcRIII (human)): 5.93
pKd (Human FcRn): 7.85
pKd (Mouse FcRIIB): 6.43
pKd (Mouse FcRIV): 8.19
pKd (Mouse FcRI): 8.88
Substance: IgG1
